From patent publication US5536648, “Amplified DNA assay using a double stranded DNA binding protein” (Amrad Corporation Limited) come the findings set out here.

Data set [1] has as its target T1, GST-GCN4 6.8 (full-length GCN4, 281 aa) (Saccharomyces cerevisiae, UniProt P03069 P03069:1-281). Description: microtitre plate capture; binds with 1 ug/ml carrier human DNA; oligo called d2 in results, d1 in methods. The following applies: tags: N-terminal GST (Schistosoma japonicum), pGEX-2T, E. coli; chain copies: 2.
In data set [2] the target is T1, GST-GCN4 6.8 (full-length GCN4, 281 aa). Description: microtitre plate capture, MTPBS-Tween, 20 C; binds with 1 ug/ml carrier human DNA. The following applies: tags: N-terminal GST (Schistosoma japonicum), pGEX-2T, E. coli; chain copies: 2.

T1 sequence (P03069 whole entry, one chain of several): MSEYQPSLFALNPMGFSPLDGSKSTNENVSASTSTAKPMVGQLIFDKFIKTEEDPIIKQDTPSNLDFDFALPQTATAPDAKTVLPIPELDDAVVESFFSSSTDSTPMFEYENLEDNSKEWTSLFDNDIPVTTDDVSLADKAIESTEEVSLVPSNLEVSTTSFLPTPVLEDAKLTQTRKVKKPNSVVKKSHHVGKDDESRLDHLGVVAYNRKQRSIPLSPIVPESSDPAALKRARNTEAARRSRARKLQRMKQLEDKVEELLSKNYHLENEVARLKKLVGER

B1: HIV p24 c-d1 (figure: d2) PCR product with GCN4 site (primer d1 shown) (dsDNA)
DNA 1: AGCGGATGACTCATTTTTTTTTCCTTGTCTTATGTCCAGAA
DNA 2: TTCTGGACATAAGACAAGGAAAAAAAAATGAGTCATCCGCT
In the case of B1, in data set [1], the binding result is listed as “binds”.

B2: HIV p24 c-d PCR product with GCN4 site (primer d shown) (dsDNA)
DNA 1: AAGTGACTCAAGTGACTCAATCCTTGTCTTATGTCCAGAA
DNA 2: TTCTGGACATAAGACAAGGATTGAGTCACTTGAGTCACTT
For B2, in data set [2], the binding result was “binds”.
